Experimental data reported in article doi:10.1101/2021.05.25.445634.

Target: TnsC of the type V-K CRISPR-associated transposase system from S. hofmanni (ShCAST) (S. hofmanni)
Experiment: cryo-EM structure

**Q.** Which stoichiometry N does the source give for “TnsC of the type V-K CRISPR-associated transposase system from S. hofmanni (ShCAST) (natural protein)” here?
**A.** Its stoichiometry N is 12 subunits.
